Data: patent publication US20060166868A1, “Vegf peptides and their use” (priority 2002, published 2006)
No end group written: not given here.

How the values were obtained:
NP-1 = molecular target: T1, NP-1 (Homo sapiens, UniProt O14786); experiment: radiolabelled VEGF binding to MDA-MB-231 cells; settings: FIG. 4; cells naturally express only NP-1 receptors for VEGF
T1 construct: the breast carcinoma cell line MDA-MB-231, that naturally expresses only NP-1 receptors for VEGF; endogenous in cells; host or cells: MDA-MB-231
T1 sequence (O14786 22-923): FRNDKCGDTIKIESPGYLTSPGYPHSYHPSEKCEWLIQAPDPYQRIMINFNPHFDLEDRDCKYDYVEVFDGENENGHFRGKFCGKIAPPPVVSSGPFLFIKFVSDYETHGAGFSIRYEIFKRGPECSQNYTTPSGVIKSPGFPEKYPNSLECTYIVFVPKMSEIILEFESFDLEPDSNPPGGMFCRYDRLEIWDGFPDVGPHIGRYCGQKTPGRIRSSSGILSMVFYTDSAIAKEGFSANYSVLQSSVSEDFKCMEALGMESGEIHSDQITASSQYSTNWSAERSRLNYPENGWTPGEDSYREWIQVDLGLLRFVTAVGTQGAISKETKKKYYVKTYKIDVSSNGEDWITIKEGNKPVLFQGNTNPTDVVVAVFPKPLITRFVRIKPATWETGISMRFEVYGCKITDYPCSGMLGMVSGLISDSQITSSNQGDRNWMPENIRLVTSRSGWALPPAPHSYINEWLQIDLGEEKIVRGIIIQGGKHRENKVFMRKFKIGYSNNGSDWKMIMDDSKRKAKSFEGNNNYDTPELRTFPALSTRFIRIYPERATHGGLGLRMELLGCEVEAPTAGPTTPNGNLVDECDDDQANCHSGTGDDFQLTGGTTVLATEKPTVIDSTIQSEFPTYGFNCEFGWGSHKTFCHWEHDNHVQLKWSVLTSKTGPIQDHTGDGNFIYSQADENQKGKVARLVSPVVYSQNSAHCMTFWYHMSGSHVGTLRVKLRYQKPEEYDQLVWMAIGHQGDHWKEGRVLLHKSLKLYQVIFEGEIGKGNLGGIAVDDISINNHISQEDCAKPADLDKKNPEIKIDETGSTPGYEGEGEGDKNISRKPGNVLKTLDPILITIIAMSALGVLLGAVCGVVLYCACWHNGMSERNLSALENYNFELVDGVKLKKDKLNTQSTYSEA

[1] = tested on: human umbilical vein endothelial cells (HUVEC) which express NP-1, KDR and Flt-1; experiment: radiolabelled VEGF binding to HUVEC; settings: FIG. 2
KDR [2] = experiment: KDR Phosphorylation Assay; assay type: cell-based; settings: FIG. 3; peptide at 10, 30 and 100 mM for 15 minutes, then 25 ng/ml VEGF for 10 minutes; immunoblot
Procedure: Cells were pretreated with peptide at 10, 30 and 100 mM for 15 minutes followed by treatment with 25 ng/ml VEGF for 10 minutes, and cells were immediately extracted by lysis buffer (64 mM Tris-HCl, pH 6.8, 0.2 mM Na3VO4, 2% SDS, 10% glycerol, 0.1 mM AEBSF, […] leupeptin). KDR phosphorylation was determined by immunoblotting cell extracts with antibodies which recognise either KDR phosphorylated at Tyrosines 1054 and 1059 (purchased from Oncogene Research Products Inc.) or total KDR (purchased from Santa Cruz Inc.). Immunoreactive bands were visualised by chemiluminescence using horseradish peroxidase-conjugated anti-rabbit IgG and ECL reagent.

Flt-1 = molecular target: T2, Flt-1 (Homo sapiens, UniProt P17948); experiment: 125I-VEGF165 binding to PAE/Flt-1 cells; settings: FIG. 2; cells expressing only Flt-1
T2 construct: expressed in transfected cells; host or cells: porcine aortic endothelial cells (PAE/Flt-1)
T2 sequence (P17948 27-1338, species assumed): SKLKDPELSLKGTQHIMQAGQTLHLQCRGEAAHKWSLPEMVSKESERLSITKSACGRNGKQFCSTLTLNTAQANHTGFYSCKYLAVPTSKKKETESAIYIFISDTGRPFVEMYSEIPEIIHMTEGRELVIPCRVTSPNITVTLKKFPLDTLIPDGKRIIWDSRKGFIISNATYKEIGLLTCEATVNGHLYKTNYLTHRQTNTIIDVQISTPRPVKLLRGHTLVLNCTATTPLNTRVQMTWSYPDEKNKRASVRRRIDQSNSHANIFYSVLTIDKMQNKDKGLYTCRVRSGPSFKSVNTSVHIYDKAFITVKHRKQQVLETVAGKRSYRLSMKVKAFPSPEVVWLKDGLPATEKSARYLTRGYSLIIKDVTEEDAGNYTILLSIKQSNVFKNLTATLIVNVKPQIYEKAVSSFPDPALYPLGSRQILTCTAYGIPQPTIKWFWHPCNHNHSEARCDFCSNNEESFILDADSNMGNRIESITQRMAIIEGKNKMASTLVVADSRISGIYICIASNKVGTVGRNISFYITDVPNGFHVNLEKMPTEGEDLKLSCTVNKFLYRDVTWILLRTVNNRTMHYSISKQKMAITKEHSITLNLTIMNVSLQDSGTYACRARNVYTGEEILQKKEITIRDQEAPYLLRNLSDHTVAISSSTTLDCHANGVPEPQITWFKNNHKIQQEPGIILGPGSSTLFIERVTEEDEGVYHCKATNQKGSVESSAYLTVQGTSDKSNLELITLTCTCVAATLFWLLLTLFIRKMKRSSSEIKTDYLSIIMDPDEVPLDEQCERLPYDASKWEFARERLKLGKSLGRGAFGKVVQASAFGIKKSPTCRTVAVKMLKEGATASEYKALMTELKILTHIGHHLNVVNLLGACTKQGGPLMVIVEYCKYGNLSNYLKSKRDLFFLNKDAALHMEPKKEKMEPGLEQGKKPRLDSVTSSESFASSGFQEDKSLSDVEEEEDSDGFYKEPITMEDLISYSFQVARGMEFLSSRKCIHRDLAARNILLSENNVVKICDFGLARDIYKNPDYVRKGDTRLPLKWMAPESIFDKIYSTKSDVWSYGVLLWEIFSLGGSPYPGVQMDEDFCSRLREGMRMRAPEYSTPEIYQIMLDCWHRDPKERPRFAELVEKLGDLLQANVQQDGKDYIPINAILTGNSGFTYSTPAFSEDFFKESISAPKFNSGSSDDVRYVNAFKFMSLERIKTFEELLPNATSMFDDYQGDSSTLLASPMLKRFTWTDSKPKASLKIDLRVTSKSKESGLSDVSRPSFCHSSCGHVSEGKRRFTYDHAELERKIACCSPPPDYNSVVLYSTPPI

KDR [3] = molecular target: T3, KDR (Homo sapiens, UniProt P35968); experiment: 125I-VEGF165 binding to PAE/KDR cells; settings: FIG. 2; cells expressing only KDR
T3 construct: expressed in transfected cells; host or cells: porcine aortic endothelial cells (PAE/KDR)
T3 sequence (P35968 20-1356, species assumed): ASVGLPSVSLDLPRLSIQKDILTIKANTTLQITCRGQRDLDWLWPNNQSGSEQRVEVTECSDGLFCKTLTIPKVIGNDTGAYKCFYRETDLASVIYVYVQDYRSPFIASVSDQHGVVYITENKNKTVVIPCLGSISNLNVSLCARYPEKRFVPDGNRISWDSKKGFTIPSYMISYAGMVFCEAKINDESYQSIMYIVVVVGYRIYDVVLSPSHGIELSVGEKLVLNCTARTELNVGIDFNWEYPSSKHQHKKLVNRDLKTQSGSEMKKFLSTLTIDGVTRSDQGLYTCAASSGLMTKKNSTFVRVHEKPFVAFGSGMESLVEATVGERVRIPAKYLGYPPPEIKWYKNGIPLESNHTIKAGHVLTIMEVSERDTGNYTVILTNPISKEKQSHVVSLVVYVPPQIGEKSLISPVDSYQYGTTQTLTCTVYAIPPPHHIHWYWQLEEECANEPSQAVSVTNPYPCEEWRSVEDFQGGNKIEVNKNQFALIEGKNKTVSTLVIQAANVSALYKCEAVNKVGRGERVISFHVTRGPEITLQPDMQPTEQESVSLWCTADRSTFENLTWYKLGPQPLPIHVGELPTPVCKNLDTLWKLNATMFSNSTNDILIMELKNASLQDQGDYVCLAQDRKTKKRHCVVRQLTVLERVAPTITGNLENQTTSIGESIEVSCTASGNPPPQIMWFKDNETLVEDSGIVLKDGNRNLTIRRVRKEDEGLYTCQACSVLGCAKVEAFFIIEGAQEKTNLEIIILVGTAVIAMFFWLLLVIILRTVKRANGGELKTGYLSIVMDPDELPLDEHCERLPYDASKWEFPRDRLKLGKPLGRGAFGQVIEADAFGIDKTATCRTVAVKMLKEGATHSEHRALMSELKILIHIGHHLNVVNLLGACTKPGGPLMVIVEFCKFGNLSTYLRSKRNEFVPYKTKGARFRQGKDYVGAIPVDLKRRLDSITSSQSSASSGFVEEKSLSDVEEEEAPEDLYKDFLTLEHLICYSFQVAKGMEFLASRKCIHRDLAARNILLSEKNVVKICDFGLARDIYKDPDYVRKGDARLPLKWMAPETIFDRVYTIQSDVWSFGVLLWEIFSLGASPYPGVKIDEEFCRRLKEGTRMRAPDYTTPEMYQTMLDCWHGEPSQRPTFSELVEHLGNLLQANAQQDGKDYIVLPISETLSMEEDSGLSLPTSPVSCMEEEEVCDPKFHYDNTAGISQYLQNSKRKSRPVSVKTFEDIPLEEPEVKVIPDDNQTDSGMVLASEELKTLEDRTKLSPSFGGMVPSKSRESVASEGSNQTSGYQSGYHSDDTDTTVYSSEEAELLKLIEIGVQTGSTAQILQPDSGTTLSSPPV

Neuropilin-1 (NP-1) = molecular target: T4, Neuropilin-1 (NP-1) (Homo sapiens, UniProt O14786); experiment: 125I-VEGF165 binding to PAE/NP1 cells
T4 construct: expressed in transfected cells; host or cells: porcine aortic endothelial cells (PAE/NP1)
T4 sequence (O14786 22-923, species assumed): as the sequence (O14786 22-923) above

HUVECs = settings: Soker et al, J. Biol. Chem. 272 (1997); cited from earlier work

Substance | binding of radiolabelled VEGF to breast carcinoma cell line MDA-MB-231 (NP-1) | radiolabelled VEGF binding to HUVEC [1] | VEGF-induced KDR phosphorylation (KDR [2]) | effect on 125I-VEGF165 binding to PAE/Flt-1 cells (Flt-1) | effect on 125I-VEGF165 binding to PAE/KDR cells (KDR [3]) | effect on 125I-VEGF165 binding to PAE/NP1 cells (Neuropilin-1 (NP-1); FIG. 1, peptide 100 μM, porcine aortic endothelial cells expressing only NP-1) | inhibition of 125I-VEGF165 binding to PAE/NP-1 cells (Neuropilin-1 (NP-1); FIG. 2) | inhibition of VEGF binding to HUVECs (HUVECs)
EG3287: bicyclic form of SEQ ID NO. 2, SCKNTDSRCKARQLELNERTCRCDKPRR, amino acids 138 to 165 within VEGF (not fully specified (N-terminus, C-terminus, bridges); also: bicyclic, two disulfides, pairing not given here; listed as Homo sapiens) | inhibited | inhibited | inhibited | no effect | no effect | inhibition | specific, selective inhibition | 
SEQ ID NO. 1: CSCKNTDSRCKARQLELNERTCRC, shortest active peptide of Soker et al; amino acids 22-44 of exon 7 and amino acid 1 of exon 8 (listed as Homo sapiens) |  |  |  |  |  |  |  | active
